Source: CN117025546A

Legend:
[1] = biological target: GST标签蛋白 (Schistosoma japonicum (Blood fluke)) [GST: P08515]; test: indirect ELISA, GST tag protein coated in dilution series, antibody at 1 μg/mL
[2] = biological target: GST标签蛋白 (Schistosoma japonicum (Blood fluke)) [GST: P08515]; test: indirect ELISA, GST tag protein coated at 10000 to 0.64 ng/mL, antibody at 1 μg/mL

- OD (450nm) at antigen 20ng/ml [1]: 1 OD
- 亲和力 [2]: 20 ng/mL
B1: 抗GST单克隆抗体 (杂交瘤细胞株62H9分泌, CCTCC NO:C2021187) (antibody, V domains shown)
VH: EVQLQESGPELVKPGASVRMSCKASGYTFTSYFMHWVKQKSGQGLEWIGYINPYHDGTNYNEKFKGKATLTSDKSSSTAYMELSSLTSEDSAVYSCARSQRLHWYFDVWGAGTTVTVSS
VL: DIVLTQSPTSLAVSLGQRATISCRASQGVSASSYSYIHWYQQKPGQPPKLLIKYASNLESGVPARFSGSGSGTDFTLNVHPVEEEDTATYYCQHSWEIPLTFGGGTKLEIK
